From patent US6514938B1, “Copolymer 1 related polypeptides for use as molecular weight markers and for therapeutic use” (Yeda Research and Development Co. Ltd. at the Weizmann …, priority 1998, dated 2003)

Tests used:
[1] = system: experimental allergic encephalomyelitis (EAE) in (SJL/JxBALB/c)FI mice; test: Blocking of experimental allergic encephalomyelitis by injection with complete adjuvant; assay type: in vivo, mouse; details: for Incidence of EAE: antigen included in the encephalitogenic inoculum, animals with EAE/animals in group; for % Blocking: blocking of EAE versus control without antigen; for Mean Score: disease score 0 (healthy) to 5 (dead); for Mean Onset: animals not protected, onset = day of score of at least 1
Source text: Blocking of Experimental Allergic Encephalomyelitis—To test the physiological activity of TV-markers, protection from experimental allergic encephalomyelitis (EAE) was investigated in mice. Injection of Copolymer 1 in complete Freund's adjuvant together with the encephalitogen can block EAE essentially as described in Aharoni et al., 17 Eur. J. Immunol. 23 (1993). Other researchers have observed that the therapeutic effect of Copolymer 1 in multiple sclerosis patients is also associated with the induction of TH2 cells. Lahat et al., 244 J. Neurol. 129 (1997). In this example, EAE is blocked by different polypeptides of the present invention.
Pertussis toxin (0.25 ml, 250 ng, Sigma) is injected intravenously, immediately after and 48 hr later. […] 2156 (1979).
EAE blocking by injection with complete adjuvant—Each antigen being tested was included in the encephalitogenic inoculum. […] Also shown is the mean onset of EAE in animals which were not protected. Disease intensity is scored daily in mice with a score of zero (0=healthy) to five (5=dead).

[2] = system: SC-103 Cop 1 specific T cell clone; test: Proliferation of Cop 1 specific T cell line (3H-thymidine uptake); details: for 3H-Thymidine incorporation (% Cop 1): 10 μg antigen, relative to 03494; for 3H-Thymidine incorporation cpm: cultured with 10 μg antigen
[3] = system: anti-Cop-1 (5-7-2) monoclonal antibody; test: RIA: binding of anti-Cop 1 monoclonal antibody to coated antigen; details: for % Cop 1 binding: relative to Cop 1 reference standard 03494; for Binding of mAb cpm: wells coated with 2 μg/ml antigen, 125I-goat anti-mouse IgG bound
[4] = system: SC-14 Cop 1 specific T cell clone; test: Proliferation of Cop 1 specific T cell line (3H-thymidine uptake); details: for 3H-Thymidine incorporation (% Cop 1): 10 μg antigen, relative to 03494; for 3H-Thymidine incorporation cpm: cultured with 10 μg antigen
[5] = system: anti-Cop-1 (3-3-9) monoclonal antibody; test: RIA: binding of anti-Cop 1 monoclonal antibody to coated antigen; details: for % Cop 1 binding: relative to Cop 1 reference standard 03494; for Binding of mAb cpm: wells coated with 2 μg/ml antigen, 125I-goat anti-mouse IgG bound
[6] = system: BALB/c-Ts-Cop-1 T cell line; test: Proliferation of Cop 1 specific T cell line (3H-thymidine uptake); details: for 3H-Thymidine incorporation (% Cop 1): 10 μg antigen, relative to 03494; for 3H-Thymidine incorporation cpm: cultured with 10 μg antigen
[7] = system: L-22-1 T cell clone; test: as above; details: for 3H-Thymidine incorporation (% Cop 1): 10 μg antigen, relative to 03494; for 3H-Thymidine incorporation cpm: cultured with 10 μg antigen
[8] = system: anti-Cop-1 (3-1-45) monoclonal antibody; test: RIA: binding of anti-Cop 1 monoclonal antibody to coated antigen; details: for % Cop 1 binding: relative to Cop 1 reference standard 03494; for Binding of mAb cpm: wells coated with 2 μg/ml antigen, 125I-goat anti-mouse IgG bound

Molecule: AKKYAKKAKAEKAKKAYKAAEAKKAAKYEKAAAEKAAAKEAAYEA [TV-45]
- Incidence of EAE [1]: 0/10
- % Blocking [1]: 100%
- Mean Score [1]: 0

Molecule: AKKYAKKEKAYAKKAEKAAKKAEAKAYKAAEAKKKAEAKYKAEAAKAAAKEAAYEA [TV-56]
- 3H-Thymidine incorporation (% Cop 1) [2]: (0) %
- 3H-Thymidine incorporation cpm [2]: 237 cpm
- % Cop 1 binding [3]: (91) %
- Binding of mAb cpm [3]: 9584 cpm
- 3H-Thymidine incorporation (% Cop 1) [4]: (117) %
- 3H-Thymidine incorporation cpm [4]: 3495 cpm
- % Cop 1 binding [5]: (2) %
- Binding of mAb cpm [5]: 1614 cpm
- 3H-Thymidine incorporation (% Cop 1) [6]: (59) %
- 3H-Thymidine incorporation cpm [6]: 19545 cpm
- 3H-Thymidine incorporation (% Cop 1) [7]: (0) %
- 3H-Thymidine incorporation cpm [7]: 232 cpm
- % Cop 1 binding [8]: (6) %
- Binding of mAb cpm [8]: 1581 cpm

Molecule: AKKYAKKEKAAKKAYKKEAKAKAAEAAAKEAAYEA [TV-35]
- 3H-Thymidine incorporation (% Cop 1) [2]: (0) %
- 3H-Thymidine incorporation cpm [2]: 438 cpm
- % Cop 1 binding [3]: (1) %
- Binding of mAb cpm [3]: 657 cpm
- 3H-Thymidine incorporation (% Cop 1) [4]: (0) %
- 3H-Thymidine incorporation cpm [4]: 884 cpm
- % Cop 1 binding [5]: (0) %
- Binding of mAb cpm [5]: 1176 cpm
- 3H-Thymidine incorporation (% Cop 1) [6]: (28) %
- 3H-Thymidine incorporation cpm [6]: 9465 cpm
- 3H-Thymidine incorporation (% Cop 1) [7]: (0) %
- 3H-Thymidine incorporation cpm [7]: 225 cpm
- % Cop 1 binding [8]: (0) %
- Binding of mAb cpm [8]: 343 cpm

B1: AKKYAKKEKAYAKKAEKAAKKAEAKAYKAAEAKKKAKAEAKKYAKAAKAEKKEYAAAEAKYKAEAAKAAAKEAAYEA (peptide)
chain: AKKYAKKEKAYAKKAEKAAKKAEAKAYKAAEAKKKAKAEAKKYAKAAKAEKKEYAAAEAKYKAEAAKAAAKEAAYEA
- 3H-Thymidine incorporation (% Cop 1) [2]: (0) %
- 3H-Thymidine incorporation cpm [2]: 327 cpm
- % Cop 1 binding [3]: (37) %
- Binding of mAb cpm [3]: 4259 cpm
- Mean Onset [1]: 14.0 days
- Incidence of EAE [1]: 1/9
- % Blocking [1]: 89%
- Mean Score [1]: 0.2
- 3H-Thymidine incorporation (% Cop 1) [4]: (83) %
- 3H-Thymidine incorporation cpm [4]: 2701 cpm
- % Cop 1 binding [5]: (6) %
- Binding of mAb cpm [5]: 2265 cpm
- 3H-Thymidine incorporation (% Cop 1) [6]: (52) %
- 3H-Thymidine incorporation cpm [6]: 17367 cpm
- 3H-Thymidine incorporation (% Cop 1) [7]: (1) %
- 3H-Thymidine incorporation cpm [7]: 300 cpm
- % Cop 1 binding [8]: (9) %
- Binding of mAb cpm [8]: 2152 cpm

B2: AKKYAKKEKAYAKKAEKAAKKAEAKAYKAAEAKKKAKAEAKKYAKAAKAEKKEYAAAEAKYKAEAAKKAYKAEAAKAAAKEAAYEA (peptide)
chain: AKKYAKKEKAYAKKAEKAAKKAEAKAYKAAEAKKKAKAEAKKYAKAAKAEKKEYAAAEAKYKAEAAKKAYKAEAAKAAAKEAAYEA
- 3H-Thymidine incorporation (% Cop 1) [2]: (0) %
- 3H-Thymidine incorporation cpm [2]: 298 cpm
- % Cop 1 binding [3]: (76) %
- Binding of mAb cpm [3]: 8140 cpm
- Mean Onset [1]: 12.0 days
- Incidence of EAE [1]: 3/10
- % Blocking [1]: 70%
- Mean Score [1]: 0.7
- 3H-Thymidine incorporation (% Cop 1) [4]: (65) %
- 3H-Thymidine incorporation cpm [4]: 2284 cpm
- % Cop 1 binding [5]: (2) %
- Binding of mAb cpm [5]: 1625 cpm
- 3H-Thymidine incorporation (% Cop 1) [6]: (44) %
- 3H-Thymidine incorporation cpm [6]: 14694 cpm
- 3H-Thymidine incorporation (% Cop 1) [7]: (1) %
- 3H-Thymidine incorporation cpm [7]: 418 cpm
- % Cop 1 binding [8]: (6) %
- Binding of mAb cpm [8]: 1606 cpm

B3: AKKYAKKAEKAYAKKAKAAKEKKAYAKKEAKAYKAAEAKKKAKAEAKKYAKEAAKAKKEAYKAEAKKYAKAAKAEKKEYAAAEAKKAEAAKAYKAEAAKAAAKEAAYEA (peptide)
chain: AKKYAKKAEKAYAKKAKAAKEKKAYAKKEAKAYKAAEAKKKAKAEAKKYAKEAAKAKKEAYKAEAKKYAKAAKAEKKEYAAAEAKKAEAAKAYKAEAAKAAAKEAAYEA
notes: reversed-phase fraction 2 used for calibration
- Incidence of EAE [1]: 0/10
- % Blocking [1]: 100%
- Mean Score [1]: 0

B4: AKKYAKKEKAYAKAKKAEAKAAKKAKAEAKKYAKAAKAEKKEYAAAEAKYKAEAAKAAAKEAAYEA (peptide)
chain: AKKYAKKEKAYAKAKKAEAKAAKKAKAEAKKYAKAAKAEKKEYAAAEAKYKAEAAKAAAKEAAYEA
- Mean Onset [1]: 11.7 days
- Incidence of EAE [1]: 6/10
- % Blocking [1]: 40%
- Mean Score [1]: 2.8
